Data taken from paper PMC7969007, “The CRISPR ancillary effector Can2 is a dual-specificity nuclease potentiating type III CRISPR defence” (Nucleic Acids Research, 2021).

Tests used:
[1] = biological target: Can2 (CRISPR ancillary nuclease 2) from Sulfobacillus thermosulfidooxidans, selenomethionine labelled (Sulfobacillus thermosulfidooxidans); experiment: crystal structure; SeMet SthCan2 at 8 mg/ml co-crystallised with cA4 at 1:1 protein:cA4; 20% (w/v) PEG 3350, 0.2 M ammonium nitrate pH 6.3, room temperature; 2.02 Å; four protein molecules in the asymmetric unit
[2] = biological target: T1, SthCan2 (Sulfobacillus thermosulfidooxidans, UniProt A0A8I3AZU2); experiment: X-ray crystal structure (co-crystal, […] A); assay type: binding; conditions: SeMet protein, protein:cA4 1:1 molar; one cA4 per dimer at the CARF dimer interface; allosteric activator of Mn2+-dependent nuclease; not degraded by the enzyme
T1 construct: synthetic gene in pEHisV5TEV, His tag cut by TEV, E. coli C43 (SeMet in B834 for the crystal); homodimer; residues 3-366 traced
T1 sequence (A0A8I3AZU2 1-366): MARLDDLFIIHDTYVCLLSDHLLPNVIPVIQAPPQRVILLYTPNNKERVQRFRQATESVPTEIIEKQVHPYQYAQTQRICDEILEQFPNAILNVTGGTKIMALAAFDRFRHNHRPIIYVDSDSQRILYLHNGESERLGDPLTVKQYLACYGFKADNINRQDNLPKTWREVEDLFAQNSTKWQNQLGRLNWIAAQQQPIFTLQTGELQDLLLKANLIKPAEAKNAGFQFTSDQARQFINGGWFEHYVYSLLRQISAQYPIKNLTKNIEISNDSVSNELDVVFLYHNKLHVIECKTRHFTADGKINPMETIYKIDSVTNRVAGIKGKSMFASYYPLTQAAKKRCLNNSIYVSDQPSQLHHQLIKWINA

| Compound | stoichiometry N [1] | X-ray crystal structure (co-crystal, 2.02 A) [2] |
| --- | --- | --- |
| Can2 (CRISPR ancillary nuclease 2) from Sulfobacillus thermosulfidooxidans, selenomethionine labelled (enzyme) | 2 | – |
| Nc1ncnc2c1ncn2[C@@H]1O[C@@H]2COP(=O)(O)O[C@H]3[C@@H](O)[C@H](n4cnc5c(N)ncnc54)O[C@@H]3COP(=O)(O)O[C@H]3[C@@H](O)[C@H](n4cnc5c(N)ncnc54)O[C@@H]3COP(=O)(O)O[C@H]3[C@@H](O)[C@H](n4cnc5c(N)ncnc54)O[C@@H]3COP(=O)(O)O[C@H]2[C@H]1O [cA4] | – | form two dimers each bound to a molecule of cA4 |
